First the molecules themselves.
B1: glmS ribozyme (parent)
chain: AUAAAAGCGCCAGAACUACAGAAAUGUAGUUGACGAGGAGGAGGUUUAUCGAAUUUUCGGCGGAUGCCUCCAAA

Common to all, as to settings: with glucosamine-6-phosphate
The variants in data set [1] derive from B1. Briefly: self-cleavage kobs at 640 uM GlcN6P; higher = faster cleavage; RNA array. A digest of the protocol:
(§1)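 E. coli RNA polymerase transcribed barcoded ribozyme variants in situ on sequenced MiSeq chips, which were tracked via a hybridised Cy3 probe at 37 °C. Tiles were imaged over ~14 h after glucosamine-6-phosphate (40 μM to 10 mM) in HEPES/KCl/Mg(OAc)2 buffer was flowed in. Normalised per-tile medians were fit to one- or two-exponential decays for kobs, and kcat and KM came from weighted Michaelis–Menten fits.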

In data set [2] the parent is B1. Briefly: self-cleavage kobs at 2500 uM GlcN6P; higher = faster cleavage; RNA array. In short, it runs like this: as §1
Variants of B1 are the subject of data set [3]. Nature of the data set: self-cleavage kobs at 10000 uM GlcN6P; higher = faster cleavage; RNA array. In short, it runs like this:
as §1

Data on 39 variants can be found in the supplement of paper PMC7125110.

± gives the standard error. This sample holds only a part of the variants without activity.

A6C C11U G51C C67G C68A: the “self-cleavage kobs at 640 uM GlcN6P” value with glucosamine-6-phosphate [1] was determined as 0.000105 ± 2.8e-05 s⁻¹. Also, the “self-cleavage kobs at 2500 uM GlcN6P” value with glucosamine-6-phosphate [2] was determined as 0.00015 ± 3.5e-05 s⁻¹. For C11A A48U C70A, the “self-cleavage kobs at 640 uM GlcN6P” value with glucosamine-6-phosphate [1] amounted to 9.74e-05 ± 2.9e-05 s⁻¹. For G43U U47C G66U, in the data set with glucosamine-6-phosphate [1], the “self-cleavage kobs at 640 uM GlcN6P” value is less than 1e-05 s⁻¹. Turning to A48U U49C U55A U56C U69C, the “self-cleavage kobs at 640 uM GlcN6P” value with glucosamine-6-phosphate [1] was less than 1e-05 s⁻¹. As to U31G G37C U69G, the “self-cleavage kobs at 640 uM GlcN6P” value in the data set with glucosamine-6-phosphate [1] was determined as 9.22e-05 ± 3.2e-05 s⁻¹. Take G7A C16G A48U G60C C70A: the “self-cleavage kobs at 640 uM GlcN6P” value in the data set with glucosamine-6-phosphate [1] is less than 1e-05 s⁻¹. Also, the “self-cleavage kobs at 2500 uM GlcN6P” value with glucosamine-6-phosphate [2] is less than 1e-05 s⁻¹. For the variant G29C G51U, in the data set with glucosamine-6-phosphate [1], the “self-cleavage kobs at 640 uM GlcN6P” value is less than 1e-05 s⁻¹. In the case of G7U G41A U69G, the “self-cleavage kobs at 640 uM GlcN6P” value with glucosamine-6-phosphate [1] is less than 1e-05 s⁻¹.

U47G A48G G63A: the “self-cleavage kobs at 640 uM GlcN6P” value in the data set with glucosamine-6-phosphate [1] is less than 1e-05 s⁻¹. As for C16U G60U C61G, the “self-cleavage kobs at 640 uM GlcN6P” value with glucosamine-6-phosphate [1] was less than 1e-05 s⁻¹. G40U G43U G51C U65C: in the data set with glucosamine-6-phosphate [1], the “self-cleavage kobs at 640 uM GlcN6P” value was less than 1e-05 s⁻¹. On the same count and under the same terms, next, G9U A42U A48C C50G G63C C67U: less than 1e-05 s⁻¹. On the same count and under the same terms, with G44A U65C the figure was less than 1e-05 s⁻¹. Consider C8A G32U U45G A48G C71A, for which the “self-cleavage kobs at 640 uM GlcN6P” value with glucosamine-6-phosphate [1] was less than 1e-05 s⁻¹. Turning to A39U G40U C67A, in the data set with glucosamine-6-phosphate [1], the “self-cleavage kobs at 640 uM GlcN6P” value is 0.000118 ± 2.9e-05 s⁻¹. Also, in the data set with glucosamine-6-phosphate [2], the “self-cleavage kobs at 2500 uM GlcN6P” value came out at 0.000561 ± 0.00019 s⁻¹.

Turning to U30A A33G U57C, the “self-cleavage kobs at 640 uM GlcN6P” value with glucosamine-6-phosphate [1] was less than 1e-05 s⁻¹. As to A15C C16U U17A A18C C19A A36G G44U, the “self-cleavage kobs at 640 uM GlcN6P” value with glucosamine-6-phosphate [1] is less than 1e-05 s⁻¹. In the case of A6G G9A A39C A42U U46A A53U C68U C71G, the “self-cleavage kobs at 640 uM GlcN6P” value in the data set with glucosamine-6-phosphate [1] is less than 1e-05 s⁻¹. Consider G13U G35U G37U, for which the “self-cleavage kobs at 640 uM GlcN6P” value in the data set with glucosamine-6-phosphate [1] was less than 1e-05 s⁻¹. On to C11G G13C G38C C58A, for which the “self-cleavage kobs at 640 uM GlcN6P” value with glucosamine-6-phosphate [1] is less than 1e-05 s⁻¹. In addition, the “self-cleavage kobs at 2500 uM GlcN6P” value with glucosamine-6-phosphate [2] is less than 1e-05 s⁻¹.

Regarding C11U A36U G44C G62U, the “self-cleavage kobs at 640 uM GlcN6P” value with glucosamine-6-phosphate [1] was less than 1e-05 s⁻¹. Regarding G13U G63A C71U, the “self-cleavage kobs at 640 uM GlcN6P” value with glucosamine-6-phosphate [1] is less than 1e-05 s⁻¹. The “self-cleavage kobs at 2500 uM GlcN6P” value with glucosamine-6-phosphate [2] is less than 1e-05 s⁻¹. As for U31G C34G U65A, in the data set with glucosamine-6-phosphate [1], the “self-cleavage kobs at 640 uM GlcN6P” value is less than 1e-05 s⁻¹.

On to C16G A39G C71A, for which the “self-cleavage kobs at 640 uM GlcN6P” value with glucosamine-6-phosphate [1] stood at 0.000265 ± 9.1e-05 s⁻¹. The “self-cleavage kobs at 2500 uM GlcN6P” value in the data set with glucosamine-6-phosphate [2] turned out to be 0.000286 ± 0.00013 s⁻¹. As for C10G A36C G60A, the “self-cleavage kobs at 640 uM GlcN6P” value with glucosamine-6-phosphate [1] is less than 1e-05 s⁻¹. As to G7C A48C C70A, the “self-cleavage kobs at 640 uM GlcN6P” value in the data set with glucosamine-6-phosphate [1] is less than 1e-05 s⁻¹. With A33U A39U G41C G43A C70G, in the data set with glucosamine-6-phosphate [1], the “self-cleavage kobs at 640 uM GlcN6P” value was less than 1e-05 s⁻¹. Turning to C11G A48G C71U, in the data set with glucosamine-6-phosphate [1], the “self-cleavage kobs at 640 uM GlcN6P” value is less than 1e-05 s⁻¹. Besides, the “self-cleavage kobs at 2500 uM GlcN6P” value in the data set with glucosamine-6-phosphate [2] is less than 1e-05 s⁻¹. On to U31C G60U C67G, for which the “self-cleavage kobs at 640 uM GlcN6P” value with glucosamine-6-phosphate [1] was less than 1e-05 s⁻¹. In the data set with glucosamine-6-phosphate [2], the “self-cleavage kobs at 2500 uM GlcN6P” value was less than 1e-05 s⁻¹. For G37C G62U C68U, the “self-cleavage kobs at 640 uM GlcN6P” value in the data set with glucosamine-6-phosphate [1] is less than 1e-05 s⁻¹. In addition, in the data set with glucosamine-6-phosphate [2], the “self-cleavage kobs at 2500 uM GlcN6P” value is less than 1e-05 s⁻¹. In the case of A6U G9C A52U C67A C70U, the “self-cleavage kobs at 640 uM GlcN6P” value in the data set with glucosamine-6-phosphate [1] was less than 1e-05 s⁻¹.

For G32U G35C U46A C67G C68A, the “self-cleavage kobs at 640 uM GlcN6P” value in the data set with glucosamine-6-phosphate [1] worked out at 0.000467 ± 0.00023 s⁻¹. Take A14G G43U G63U C70A: the “self-cleavage kobs at 640 uM GlcN6P” value with glucosamine-6-phosphate [1] is less than 1e-05 s⁻¹. The “self-cleavage kobs at 2500 uM GlcN6P” value in the data set with glucosamine-6-phosphate [2] was less than 1e-05 s⁻¹. As to A6G C11U G60A C71U, the “self-cleavage kobs at 640 uM GlcN6P” value in the data set with glucosamine-6-phosphate [1] is less than 1e-05 s⁻¹. Further, the “self-cleavage kobs at 2500 uM GlcN6P” value with glucosamine-6-phosphate [2] is less than 1e-05 s⁻¹. In the case of U30A G38A C50A G66U, the “self-cleavage kobs at 640 uM GlcN6P” value in the data set with glucosamine-6-phosphate [1] is less than 1e-05 s⁻¹.

For G13U A15C C58G, in the data set with glucosamine-6-phosphate [1], the “self-cleavage kobs at 640 uM GlcN6P” value stood at 0.00154 ± 0.00048 s⁻¹. Moreover, the “self-cleavage kobs at 2500 uM GlcN6P” value with glucosamine-6-phosphate [2] is 7.7e-05 ± 2.3e-05 s⁻¹. Moreover, the “self-cleavage kobs at 10000 uM GlcN6P” value with glucosamine-6-phosphate [3] amounted to 8.16e-05 ± 1.4e-05 s⁻¹.

Regarding G51C A52C G60A, the “self-cleavage kobs at 640 uM GlcN6P” value with glucosamine-6-phosphate [1] was less than 1e-05 s⁻¹. For G43U C67G C70A, in the data set with glucosamine-6-phosphate [1], the “self-cleavage kobs at 640 uM GlcN6P” value was less than 1e-05 s⁻¹. Still for that read-out and setting: next, U30A U31A G66A: 0.000765 ± 0.00037 s⁻¹.
